Experimental data as given in patent US20090011988A1 (Genentech, published 2009).
Positions of bridges follow the written chain, without caps; N, C: chain ends. No end group written: not given here.

T1: human IGFBP-1 (human, UniProt P08833 26-259)
T1 sequence (looked up): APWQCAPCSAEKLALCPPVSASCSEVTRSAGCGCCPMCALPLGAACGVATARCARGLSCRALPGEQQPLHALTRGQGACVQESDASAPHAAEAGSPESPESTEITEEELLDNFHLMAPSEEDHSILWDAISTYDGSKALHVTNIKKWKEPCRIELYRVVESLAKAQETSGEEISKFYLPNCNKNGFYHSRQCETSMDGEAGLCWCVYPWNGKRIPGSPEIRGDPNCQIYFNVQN

B1: BP1-20 (peptide)
peptide: EARVCRAGPLQWLCEKYF-NH2
modifications: disulfide 5-14; N-terminus assumed
SMILES: CC(C)C[C@@H]1NC(=O)[C@H](Cc2c[nH]c3ccccc23)NC(=O)[C@H](CCC(N)=O)NC(=O)[C@H](CC(C)C)NC(=O)[C@@H]2CCCN2C(=O)CNC(=O)[C@H](C)NC(=O)[C@H](CCCNC(=N)N)NC(=O)[C@@H](NC(=O)[C@@H](NC(=O)[C@H](CCCNC(=N)N)NC(=O)[C@H](C)NC(=O)[C@@H](N)CCC(=O)O)C(C)C)CSSC[C@@H](C(=O)N[C@@H](CCC(=O)O)C(=O)N[C@@H](CCCCN)C(=O)N[C@@H](Cc2ccc(O)cc2)C(=O)N[C@@H](Cc2ccccc2)C(N)=O)NC1=O
B2: BP1-21A (peptide)
peptide: SEVGCRAGPLQWLCEKYFSTY-NH2
modifications: disulfide 5-14; N-terminus assumed
SMILES: CC(C)C[C@@H]1NC(=O)[C@H](Cc2c[nH]c3ccccc23)NC(=O)[C@H](CCC(N)=O)NC(=O)[C@H](CC(C)C)NC(=O)[C@@H]2CCCN2C(=O)CNC(=O)[C@H](C)NC(=O)[C@H](CCCNC(=N)N)NC(=O)[C@@H](NC(=O)CNC(=O)[C@@H](NC(=O)[C@H](CCC(=O)O)NC(=O)[C@@H](N)CO)C(C)C)CSSC[C@@H](C(=O)N[C@@H](CCC(=O)O)C(=O)N[C@@H](CCCCN)C(=O)N[C@@H](Cc2ccc(O)cc2)C(=O)N[C@@H](Cc2ccccc2)C(=O)N[C@@H](CO)C(=O)N[C@H](C(=O)N[C@@H](Cc2ccc(O)cc2)C(N)=O)[C@@H](C)O)NC1=O
notes: also called Y135C
B3: 4D3.9 (peptide)
peptide displayed on M13 phage as a fusion to g8p: ETVANCDCYMDLCLCYGSDR
modifications: not fully specified (bridges); cysteine pairing not given here; also: displayed on phage as g8p fusion
notes: whole phage particle in the assay; also called peptide-phage clone 4D3.9 (g8 display)
B4: peptide-phage clone 4C3.2 (g8 display) (peptide, not shown: large carriers)
chain: ELDGWVCIKVGEQNLCYLAE
modifications: not fully specified (bridges); cysteine pairing not given here; also: polyvalent display on M13 phage, fused via linker to g8p
notes: polyvalent display on M13 phage
B5: 4D3.12 (peptide)
peptide displayed on M13 phage as a fusion to g8p: AEWAECWIAGDQLLCVGKDN
modifications: not fully specified (bridges); cysteine pairing not given here; also: displayed on phage as g8p fusion
notes: whole phage particle in the assay; also called peptide-phage clone 4D3.12 (g8 display)
B6: 4D3.8 (peptide)
peptide displayed on M13 phage as a fusion to g8p: SEEVCWPVAEWYLCNILGP
modifications: not fully specified (bridges); cysteine pairing not given here; also: displayed on phage as g8p fusion
notes: whole phage particle in the assay; also called peptide-phage clone 4D3.8 (g8 display)

Target: T1, human IGFBP-1
Assay: BIAcore inhibition assay
Protocol: Peptides were assayed in a BIAcore™ assay as described in WO 98/45427, supra.

Row | Binder | fold potency reduction, IC50 (BP1-01)/IC50 (mut)
1 | Ac-RAGPLEWLAEKYEG (linker 6-13 via 1,5‑diaminopentane) [(i+7)D] | 7.7
2 | Ac-RPLEWLAEKYFE (linker 4-12 via 1,5‑diaminopentane) [(i+8)B] | 7.7
3 | Ac-RAGPLEWLAEKYFE (linker 6-14 via 1,5‑diaminopentane) [(i+8)C] | 5.9

Target: T1, human IGFBP-1
Assay: BIAcore kinetics, IGFBP-1 coupled to chip
Protocol: For each dilution of peptides, a global fit of the sensorgram data was performed using a 1:1 Langmuir binding model.

Row | Binder | Kd
4 | GQQSCRAGPLQWLCEKYFSTY (disulfide 5-14, also called Y0791A) [BP1-40] | 27 nM
5 | B1 | 33 nM
6 | B2 | 41 nM

Target: recombinant human IGFBP-3 (human, UniProt P17936 28-291)
Assay: phage ELISA (IGF-blocking phage assay): g8 peptide-phage at a 50-fold dilution on an IGFBP-3-coated plate, without and with IGF-1; OD492
Protocol: The plates were then washed ten times, as above, and a solution of rabbit anti-phage antibody mixed with a goat-anti-rabbit conjugate of horseradish peroxidase was added. After an incubation of 1 hour at room temperature, the plates were developed with a chromogenic substrate, o-phenylenediamine (Sigma). The reaction was stopped with addition of ½ volume of 2.5 M H₂SO₄. Optical density at 490 nm was measured on a spectrophotometric plate reader.
In each case, the phagemid clone was grown from a single colony overnight at 37° C. in a culture volume of 5 ml. The phage particles were precipitated and resuspended in 0.5 ml of PBS buffer.

Chain of recombinant human IGFBP-3 (P17936 28-291 limits assumed): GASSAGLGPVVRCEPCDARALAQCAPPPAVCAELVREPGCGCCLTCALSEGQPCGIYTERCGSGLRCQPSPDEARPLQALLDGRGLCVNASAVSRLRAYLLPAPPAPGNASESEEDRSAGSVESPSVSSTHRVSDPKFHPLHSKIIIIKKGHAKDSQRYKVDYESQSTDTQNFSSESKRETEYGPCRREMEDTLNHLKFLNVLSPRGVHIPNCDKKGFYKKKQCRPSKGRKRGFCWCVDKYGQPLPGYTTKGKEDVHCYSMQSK

Row | Binder | binding result
7 | B3 | binds
8 | B4 | binds
9 | B5 | binds
10 | B6 | binds
